Data taken from the supplement of paper PMC12458215.
± gives the uncertainty stated by the source.

System: HEK293T
Test: plasma membrane surface immunostaining intensity (anti-HA, deep receptor scanning) (arbitrary fluorescence units); higher = higher plasma membrane expression

Sequence: MEGDSYHNATTVNGTPVNHQPLERHRLWEVITIAAVTAVVSLITIVGNVLVMISFKVNSQLKTVNNYYLLSLACADLIIGIFSMNLYTTYILMGRWALGSLACDLWLALDYVASNASVMNLLVISFDRYFSITRPLTYRAKRTPKRAGIMIGLAWLISFILWAPAILCWQYLVGKRTVPLDECQIQFLSEPTITFGTAIAAFYIPVSVMTILYCRIYRETEKRTKDLADLQGSDSVTKAEKRKPAHRALFRSCLRCPRPTLAQRERNQASWSSSRRSTSTTGKPSQATGPSANWAKAEQLTTCSSYPSSEDEDKPATDPVLQVVYKSQGKESPGEEFSAEETEETFVKAETEKSDYDTPNYLLSPAAAHRPKSQKCVAYKFRLVVKADGNQETNNGCHKVKIMPCPFPVAKEPSTKGLNPNPSHQMTKRKRVVLVKERKAAQTLSAILLAFIITWTPYNIMVLVSTFCDKCVPVTLWHLGYWLCYVNSTVNPICYALCNRTFRKTFKMLLLCRWKKKKVEEKLYWQGNSKLP [CHRM5]
- plasma membrane surface immunostaining intensity (GPCR class: A): 1470 ± 190

Sequence: MAFLIILITCFVIILATSQPCQTPDDFVAATSPGHIIIGGLFAIHEKMLSSEDSPRRPQIQECVGFEISVFLQTLAMIHSIEMINNSTLLPGVKLGYEIYDTCTEVTVAMAATLRFLSKFNCSRETVEFKCDYSSYMPRVKAVIGSGYSEITMAVSRMLNLQLMPQVGYESTAEILSDKIRFPSFLRTVPSDFHQIKAMAHLIQKSGWNWIGIITTDDDYGRLALNTFIIQAEANNVCIAFKEVLPAFLSDNTIEVRINRTLKKIILEAQVNVIVVFLRQFHVFDLFNKAIEMNINKMWIASDNWSTATKITTIPNVKKIGKVVGFAFRRGNISSFHSFLQNLHLLPSDSHKLLHEYAMHLSACAYVKDTDLSQCIFNHSQRTLAYKANKAIERNFVMRNDFLWDYAEPGLIHSIQLAVFALGYAIRDLCQARDCQNPNAFQPWELLGVLKNVTFTDGWNSFHFDAHGDLNTGYDVVLWKEINGHMTVTKMAEYDLQNDVFIIPDQETKNEFRNLKQIQSKCSKECSPGQMKKTTRSQHICCYECQNCPENHYTNQTDMPHCLLCNNKTHWAPVRSTMCFEKEVEYLNWNDSLAILLLILSLLGIIFVLVVGIIFTRNLNTPVVKSSGGLRVCYVILLCHFLNFASTSFFIGEPQDFTCKTRQTMFGVSFTLCISCILTKSLKILLAFSFDPKLQKFLKCLYRPILIIFTCTGIQVVICTLWLIFAAPTVEVNVSLPRVIILECEEGSILAFGTMLGYIAILAFICFIFAFKGKYENYNEAKFITFGMLIYFIAWITFIPIYATTFGKYVPAVEIIVILISNYGILYCTFIPKCYVIICKQEINTKSAFLKMIYSYSSHSVSSIALSPASLDSMSGNVTMTNPSSSGKSATWQKSKDLQAQAFAHICRENATSVSKTLPRKRMSSI [GPRC6A]
- plasma membrane surface immunostaining intensity (GPCR class: C): 158 ± 24

Sequence: MDHCGALFLCLCLLTLQNATTETWEELLSYMENMQVSRGRSSVFSSRQLHQLEQMLLNTSFPGYNLTLQTPTIQSLAFKLSCDFSGLSLTSATLKRVPQAGGQHARGQHAMQFPAELTRDACKTRPRELRLICIYFSNTHFFKDENNSSLLNNYVLGAQLSHGHVNNLRDPVNISFWHNQSLEGYTLTCVFWKEGARKQPWGGWSPEGCRTEQPSHSQVLCRCNHLTYFAVLMQLSPALVPAELLAPLTYISLVGCSISIVASLITVLLHFHFRKQSDSLTRIHMNLHASVLLLNIAFLLSPAFAMSPVPGSACTALAAALHYALLSCLTWMAIEGFNLYLLLGRVYNIYIRRYVFKLGVLGWGAPALLVLLSLSVKSSVYGPCTIPVFDSWENGTGFQNMSICWVRSPVVHSVLVMGYGGLTSLFNLVVLAWALWTLRRLRERADAPSVRACHDTVTVLGLTVLLGTTWALAFFSFGVFLLPQLFLFTILNSLYGFFLFLWFCSQRCRSEAEAKAQIEAFSSSQTTQ [ADGRG5]
- plasma membrane surface immunostaining intensity (GPCR class: B): 512 ± 20

Sequence: MTRKNYTSLTEFVLLGLADTLELQIILFLFFLVIYTLTVLGNLGMILLIRIDSQLHTPMYFFLANLSFVDVCNSTTITPKMLADLLSEKKTISFAGCFLQMYFFISLATTECILFGLMAYDRYAAICRPLLYSLIMSRTVYLKMAAGAFAAGLLNFMVNTSHVSSLSFCDSNVIHHFFCDSPPLFKLSCSDTILKESISSILAGVNIVGTLLVILSSYSYVLFSIFSMHSGEGRHRAFSTCASHLTAIILFYATCIYTYLRPSSSYSLNQDKVASVFYTVVIPMLNPLIYSLRSKEVKKALANVISRKRTSSFL [OR5F1]
- plasma membrane surface immunostaining intensity (GPCR class: A (Olfactory)): 192 ± 87
